Experimental data: US20240425588A1 (published 2024)

T1: recombinant human TIGIT-His (SinoBiological) (UniProt Q495A1 22-141)
T1 chain: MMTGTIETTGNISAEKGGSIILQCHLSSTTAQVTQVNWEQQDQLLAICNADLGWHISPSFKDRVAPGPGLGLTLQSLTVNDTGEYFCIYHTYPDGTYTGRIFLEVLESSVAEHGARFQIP

B1: 50C2 Affinity Matured (HAM) (antibody, V domains shown)
VH: QVQLQESGPGLVKPSETLSLTCTVSGFSLTNYNINWIRQPPGKGLEWIGVIWNGGGTNYNSAFMSRVTISKDTSKNQVSLKLSSVTAADTAVYYCVREAYFSNYGFYFDYWGQGTLVTVSS
VL: DIQMTQSPSSLSASVGDRVTITCSASSSISSNYLHWYQQKPGKAPKLLIYRTSNLASGVPSRFSGSGSGTDFTLTISSLQPEDFATYYCQQGSSIPRTFGGGTKVEIK
B2: 32B10 Original (antibody, V domains shown)
VH: EVQLVESGGVLVKPGGSLKLSCAASGFTFSNYVMSWVRQTPEKRLEWVATITSGGTYTYYPDSVKGRFTISRDNAKNILYLQMSSLRSEDTALYYCTRWLLSLYAMDYWGQGTSVTVSS
VL: DIQMTQTTSSLSASLGDRVTITCRASQDISNFLNWYQQKPDGTVKLLIYYTSRLHSGVPSRFSGSGSGTDYSLTISNLEQEDIATYFCQQGKTYPYTFGGGTKVEIK
B3: 32B10 Affinity Matured (HAM) (antibody, V domains shown)
VH: EVQLLESGGGLVQPGGSLRLSCAASGFTFSNYVMSWVRQAPGKGLEWVSTITSGGTYTYYPDSVKGRFTISRDNSKNTLYLQMNSLRAEDTAVYYCTRWLLSLYAMDYWGQGTTVTVSS
VL: DIQMTQSPSSLSASVGDRVTITCRASQDISNFLNWYQQKPGKAVKLLLYYTSRLHSGVPSRFSGSGSGTDYTLTISSLQPEDFATYFCQQFKTYPYTFGGGTKVEIK
B4: 32B10 Humanized (Hu) (antibody, V domains shown)
VH: EVQLLESGGGLVQPGGSLRLSCAASGFTFSNYVMSWVRQAPGKGLEWVSTITSGGTYTYYPDSVKGRFTISRDNSKNTLYLQMNSLRAEDTAVYYCTRWLLSLYAMDYWGQGTTVTVSS
VL: DIQMTQSPSSLSASVGDRVTITCRASQDISNFLNWYQQKPGKAVKLLLYYTSRLHSGVPSRFSGSGSGTDYTLTISSLQPEDFATYFCQQGKTYPYTFGGGTKVEIK
B5: 50C2 Original (antibody, V domains shown)
VH: QVQLKESGPGLVAPSQSLSITCTVSGFSLTNYNINWIRQPPGKGLEWLGVIWTGGGTNYNSAFMSRLSISKDNSKSQVFLKMNRLQTDDTAIYYCVREAYFSNYGFYFDYWGQGTTLTVSS
VL: EIVLTQSPTTMAASPGEKITITCSASSSISSNYLHWYQQKPGFSPKLLIYRTSNLASGVPARFSGSGSGTSYSLTIGTMEAEDVATYYCQQGSSIPRTFGGGTKLEIK
B6: hu50C2 HAM (45.50C2.A6) (antibody, V domains shown)
VH: QVQLQESGPGLVKPSETLSLTCTVSGFSLTNYNINWIRQPPGKGLEWIGVIWNGGGTNYNSAFMSRVTISKDTSKNQVSLKLSSVTAADTAVYYCVREAYFSNYGFYFDYWGQGTLVTVSS
VL: DIQMTQSPSSLSASVGDRVTITCSASSSISSNYLHWYQQKPGKAPKLLIYRTSNLASGVPSRFSGSGSGTDFTLTISSLQPEDFATYYCQQGSSIPRTFGGGTKVEIK
B7: hu50C2 (45.50C2.A6) (antibody, V domains shown)
VH: QVQLQESGPGLVKPSETLSLTCTVSGFSLTNYNINWIRQPPGKGLEWIGVIWTGGGTNYNSAFMSRVTISKDTSKNQVSLKLSSVTAADTAVYYCVREAYFSNYGFYFDYWGQGTLVTVSS
VL: DIQMTQSPSSLSASVGDRVTITCSASSSISSNYLHWYQQKPGKAPKLLIYRTSNLASGVPSRFSGSGSGTDFTLTISSLQPEDFATYYCQQGSSIPRTFGGGTKVEIK
B8: 45.32B10.A4 (antibody, V domains shown)
VH: EVQLVESGGVLVKPGGSLKLSCAASGFTFSNYVMSWVRQTPEKRLEWVATITSGGTYTYYPDSVKGRFTISRDNAKNILYLQMSSLRSEDTALYYCTRWLLSLYAMDYWGQGTSVTVSS
VL: DIQMTQTTSSLSASLGDRVTITCRASQDISNFLNWYQQKPDGTVKLLIYYTSRLHSGVPSRFSGSGSGTDYSLTISNLEQEDIATYFCQQGKTYPYTFGGGTKVEIK
B9: hu32B10 HAM (45.32B10.A4) (antibody, V domains shown)
VH: EVQLLESGGGLVQPGGSLRLSCAASGFTFSNYVMSWVRQAPGKGLEWVSTITSGGTYTYYPDSVKGRFTISRDNSKNTLYLQMNSLRAEDTAVYYCTRWLLSLYAMDYWGQGTTVTVSS
VL: DIQMTQSPSSLSASVGDRVTITCRASQDISNFLNWYQQKPGKAVKLLLYYTSRLHSGVPSRFSGSGSGTDYTLTISSLQPEDFATYFCQQFKTYPYTFGGGTKVEIK
B10: hu32B10 (45.32B10.A4) (antibody, V domains shown)
VH: EVQLLESGGGLVQPGGSLRLSCAASGFTFSNYVMSWVRQAPGKGLEWVSTITSGGTYTYYPDSVKGRFTISRDNSKNTLYLQMNSLRAEDTAVYYCTRWLLSLYAMDYWGQGTTVTVSS
VL: DIQMTQSPSSLSASVGDRVTITCRASQDISNFLNWYQQKPGKAVKLLLYYTSRLHSGVPSRFSGSGSGTDYTLTISSLQPEDFATYFCQQGKTYPYTFGGGTKVEIK
B11: 45.50C2.A6 (antibody, V domains shown)
VH: QVQLKESGPGLVAPSQSLSITCTVSGFSLTNYNINWIRQPPGKGLEWLGVIWTGGGTNYNSAFMSRLSISKDNSKSQVFLKMNRLQTDDTAIYYCVREAYFSNYGFYFDYWGQGTTLTVSS
VL: EIVLTQSPTTMAASPGEKITITCSASSSISSNYLHWYQQKPGFSPKLLIYRTSNLASGVPARFSGSGSGTSYSLTIGTMEAEDVATYYCQQGSSIPRTFGGGTKLEIK
B12: 45.87B8.H2.H5 (antibody, V domains shown)
VH: DVQLQESGPGLVKPSQSLSLTCTVTGYSITSAYDWHWIRLFPGHILEWMGYISYSGNTIYNPSLKSRISITHDTSKNHFFLKLNSVTTEDTATYYCARGSFWYFDVWGAGTTVTVSS
VL: DIQMTQSPASLSASVGETVTITCRVSEHIYNYLAWYQQKQGKSPQLLVYNAKTLAEGVPSRFSGSGSGTQFSLKINSLQPEDFGTYYCQHNYGNPLTFGAGTKVELK
B13: 45.86C5.C3 (antibody, V domains shown)
VH: DVQLQESGPGLVKPSQSLSLTCTVTGYSITSGYDWHWIRHFPGNILEWMGYISDSGNTIYSPSLKSRISITHDTSKNHFFLKLNSVTSEDTATYYCARGSFWYFDVWGAGTTVTVSS
VL: DIQMTQSPASLSASVGETVTITCRVSENIYSYLAWYQQKQGKSPQLLVYNTKTLAEGVPSRFSGSGSGTQFSLKINSLQPEDFGSYYCQHHYGNPLTFGAGTKLELK
B14: 45.62B12.G5 (antibody, V domains shown)
VH: DVQLQESGPGLVKPSQSLSLTCTVTGYSITSAYDWHWIRHFPGNILEWMGYIRNSGSTNYNPLLKSRISITHDTSQNHFSLKLNSVTTEDTATYYCARGLFWYFDVWGAGTTVTVSS
VL: DIQMTQSPASLSASVGETVTITCRASENIYNYLTWYQQKQGKSPQLLVYNAKTLAEGVPSRFSGSGSGTQFSLKINSLQPEDFGSYYCQHHYGNPLTFGAGTKLELK
B15: 45.31G8.E9 (antibody, V domains shown)
VH: QIQLQQSGAELVRPGTSVKMSCKAVGYTFTNYWINWVKQRPGHGFEWIGDIYPGGYYINYNEKFKGKATLTADTSSSTAYMQLSSLTSEDSAIYYCARGYGSYAMDYWGQGTSVTVSS
VL: DIVMTQSQKFMSTSVGDRVSITCKASQNVRTDVVWYQQKPGQSPKALIFLASNRHTGVPDRFTGSGSGTDFTLTISNVQSEDLADYFCLQHWNYPYTFGGGTKLEIK
B16: 45.102D4.C12.C6 (antibody, V domains shown)
VH: EVQLQQSGPELVKPGASVKMSCKASGYTFTTYVIHWVKQKPGQGLEWIGYINPYNDGTKYNEKFKVKATLTSDKSSSTAYMELSSLTSEDSAVYYCARSFYVNYGFAYWGQGTLVTVSA
VL: DIVMTQAHKFMSTSVGDRVSITSKASQDVRTAVAWYQQKPGQSPKLLIYSASYRYTGVPDRFTGSGSGADFTFTISSVQAEDLAVYYCQQHYITPWTFGGGTKLEIK
B17: 45.49H11.H11 (antibody, V domains shown)
VH: EVQLQQSGPELVKPGASVKMSCKTSKYTFTNYVLHWVKQKPGQGLEWIGYINPYNDGTKYNEKFKGKATLTSDKSSSTAYMELSSLTSEDSAVYYCARSYQSNYGFGYWGQGTLVTVSA
VL: DIVMTQSHKFMSTSVGDRVSITCKASQHVSTAVVWYRQIPGQSPKILINSASYRYTGVPDRFTGSGSGTDFTFTISSVQAEDLAVYYCQQHYSIPWTFGGGTKLEIK
B18: 45.56F7.A1 (antibody, V domains shown)
VH: EVQLVESGGALVKPGGSLKLSCAASGFTFSNYAMSWVRQTPEKRLEWVATISSGGSYTYYPDSVKGRFTISRDNAKNTLYLQMSSLRSEDTALYYCARWLLSLYAMDYWGQGTSVTVSS
VL: DFQMTQTTSSLSASLGDRVTISCRSSQDISNYLNWYQQKPDGTVKLLIYRTSRLHSGVPSRFSGSGSGTDYSLTISNLEREDIATYFCQQGKTPPYTFGGGTKLEIK
B19: 45.75D4.D3.D9 (antibody, V domains shown)
VH: EVQLQQSGPELVKPGASMKMSCKASGYKFTSYVMHWVKQKPGQGLEWIGYIDPYNDGSKYNEKFKGKATLTSDKSSSIAYMELSSLTSEDSAVFYCARGGSRGWYFDVWGAGTTVTVSS
VL: DIQMTQSPASLSASVGETVTFTCRTNENIYSYLTWYQQKQGKSPQVLVYNAKTLAEGVPSRFSGSGSGTQFSLKINSLQPEDFGSYFCQHHFGNPLTFGAGTKLELK
B20: 45.32A8.G6 (antibody, V domains shown)
VH: QVQLKESGPGLVAPSHSLSITCTVSGFSLTNYNINWIRQPPGKGLEWLGIIWTGGGTNYNSAFMSTLSINKDNSKSQVFLKMNRMQTDDTTIYYCVRETYFNNYGFYFDYWGQSTTLTVSS
VL: EIVLTQSPTTMAASPGEKITITCSASSSISSNYLHWYQQKPGFSPKLLIYRTSNLASGVPARFSGSGSGTSYSLTIGTMEAEDVATYYCQQGSSIPRTFGGGTKLEIK
B21: 45.3D7.F7 (antibody, V domains shown)
VH: QVQLQQSGPELVKPGASVKISCKASGYGFSGYWMNWVKQGPGKGLEWIGRIFPGDGDTDYNGKLKDKATLTAYKSSSTAYLQLSSLTSEDSAVYFCARWLGGFTSWGQGTLVTVSA
VL: QIVLSQSPAILSASPGEKVTMTCRASASVSYMHWYQQKPGSSPKPWIYATSNLASGVPARFSGSGSGTSYSLTISRVEAEDAATYYCQQWSSDPPTFGAGTKLELK

target: Cynomolgus TIGIT; assay: Biacore

With B1 as the binder, how does the Kd read?
Its Kd is 19.2 nM.

How did the Kd turn out when B2 was run?
The Kd was 8.7 nM.

B3 was tested. Which Kd did it give?
The Kd was 6.73 nM.

B4 was tested. Which Kd did it give?
The Kd was 26 nM.

How did the Kd turn out when B5 was run?
Its Kd is 45.9 nM.

Target: T1, recombinant human TIGIT-His …
Assay: Biacore

Which Kd does the source give for B6 here?
Its Kd is 4.17 nM.

With B7 as the binder, how does the Kd read?
Its Kd is 1.46 nM.

Which Kd does the source give for B8 here?
The Kd was 0.53 nM.

Which Kd does the source give for B9 here?
The Kd was 0.271 nM.

For B10, which Kd is on record?
Its Kd is 1.61 nM.

With B11 as the binder, how does the Kd read?
The Kd was 0.386 nM.

Target: T1, recombinant human TIGIT-His …
Assay: Biacore; 25°C

With B12 as the binder, how does the Kd read?
Its Kd is 4.75 nM.

B13 was tested. Which Kd did it give?
Its Kd is 0.784 nM.

B14 was tested. Which Kd did it give?
The Kd was 0.862 nM.

With B15 as the binder, how does the Kd read?
Its Kd is 0.776 nM.

Which Kd does the source give for B16 here?
The Kd was 1.23 nM.

B17 was tested. Which Kd did it give?
Its Kd is 1.04 nM.

For B8, which Kd is on record?
Its Kd is 0.53 nM.

For B18, which Kd is on record?
Its Kd is 12 nM.

How did the Kd turn out when B19 was run?
The Kd was 1.09 nM.

How did the Kd turn out when B20 was run?
The Kd was 0.428 nM.

With B11 as the binder, how does the Kd read?
Its Kd is 0.386 nM.

How did the Kd turn out when B21 was run?
Its Kd is 4.47 nM.
